Data taken from the supplement of paper PMC10567573.

B1: DCAF4 (parent)
chain: DSHILLCLMGLAETPGCATLLPAS
B2: TCAP (parent)
chain: YQRVLPLPIFTPAKMGATKEERED

Variants of: B1
Experiment: protein stability index of a GFP-peptide fusion (GPS, HEK-293T) (PSI 1-6); higher = more stable
Conditions: c terminus: a fixed tail appended
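Further: lentivirally expressed fusions sorted by FACS into six bins by GFP to DsRed ratio, PSI derived from sequencing read proportions per bin multiplied by bin number.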

Point of comparison: DSYILLCLMGLAETPGCATLLPAS [H3Y], protein stability index 2.67. Against it:
- DFHILLCLMGLAETPGCATLLPAS [S2F] — higher, 3.1
- DVHILLCLMGLAETPGCATLLPAS [S2V] — higher, 3.74
- DNHILLCLMGLAETPGCATLLPAS [S2N] — lower, 2.39
- DMHILLCLMGLAETPGCATLLPAS [S2M] — lower, 2.31
- DKHILLCLMGLAETPGCATLLPAS [S2K] — lower, 2.03
- DTHILLCLMGLAETPGCATLLPAS [S2T] — lower, 2.09
- DRHILLCLMGLAETPGCATLLPAS [S2R] — lower, 2.46
- DEHILLCLMGLAETPGCATLLPAS [S2E] — lower, 2.48
- DQHILLCLMGLAETPGCATLLPAS [S2Q] — higher, 3.81
- DGHILLCLMGLAETPGCATLLPAS [S2G] — higher, 3.25
- DAHILLCLMGLAETPGCATLLPAS [S2A] — higher, 3.22
- DDHILLCLMGLAETPGCATLLPAS [S2D] — lower, 2.64
- DLHILLCLMGLAETPGCATLLPAS [S2L] — lower, 2.63
- DPHILLCLMGLAETPGCATLLPAS [S2P] — lower, 2.04
- DHHILLCLMGLAETPGCATLLPAS [S2H] — lower, 1.36
- DIHILLCLMGLAETPGCATLLPAS [S2I] — lower, 2.04
- DWHILLCLMGLAETPGCATLLPAS [S2W] — higher, 2.68
- DSHLLLCLMGLAETPGCATLLPAS [I4L] — higher, 2.96
- DSHMLLCLMGLAETPGCATLLPAS [I4M] — lower, 1.86
- DSHGLLCLMGLAETPGCATLLPAS [I4G] — lower, 2.11
- DSHHLLCLMGLAETPGCATLLPAS [I4H] — lower, 1.64
- DSHDLLCLMGLAETPGCATLLPAS [I4D] — lower, 1.92
- DSHALLCLMGLAETPGCATLLPAS [I4A] — lower, 1.67
- DSHKLLCLMGLAETPGCATLLPAS [I4K] — lower, 2.2
- DSHFLLCLMGLAETPGCATLLPAS [I4F] — lower, 2.53
- DSHELLCLMGLAETPGCATLLPAS [I4E] — lower, 1.99
- DSHNLLCLMGLAETPGCATLLPAS [I4N] — lower, 1.93
- DSHPLLCLMGLAETPGCATLLPAS [I4P] — lower, 1.86
- DSHRLLCLMGLAETPGCATLLPAS [I4R] — lower, 1.77
- DSHQLLCLMGLAETPGCATLLPAS [I4Q] — lower, 2.13
- DSHCLLCLMGLAETPGCATLLPAS [I4C] — lower, 2.15
- DSHSLLCLMGLAETPGCATLLPAS [I4S] — lower, 1.82
- KSHILLCLMGLAETPGCATLLPAS [D1K] — lower, 2.07
- QSHILLCLMGLAETPGCATLLPAS [D1Q] — higher, 2.87
- TSHILLCLMGLAETPGCATLLPAS [D1T] — lower, 2.58
- SSHILLCLMGLAETPGCATLLPAS [D1S] — higher, 3.75
- LSHILLCLMGLAETPGCATLLPAS [D1L] — higher, 3.08
- VSHILLCLMGLAETPGCATLLPAS [D1V] — higher, 3.42
- RSHILLCLMGLAETPGCATLLPAS [D1R] — higher, 4.01
- ESHILLCLMGLAETPGCATLLPAS [D1E] — lower, 2.55
- ASHILLCLMGLAETPGCATLLPAS [D1A] — higher, 2.99
- CSHILLCLMGLAETPGCATLLPAS [D1C] — higher, 3.49
- YSHILLCLMGLAETPGCATLLPAS [D1Y] — lower, 1.7
- GSHILLCLMGLAETPGCATLLPAS [D1G] — higher, 3.42
- WSHILLCLMGLAETPGCATLLPAS [D1W] — higher, 3.42
- MSHILLCLMGLAETPGCATLLPAS [D1M] — lower, 2.4
- HSHILLCLMGLAETPGCATLLPAS [D1H] — lower, 2.19
- ISHILLCLMGLAETPGCATLLPAS [D1I] — lower, 2.64
- DSVILLCLMGLAETPGCATLLPAS [H3V] — lower, 2.04
- DSDILLCLMGLAETPGCATLLPAS [H3D] — lower, 2.49
- DSTILLCLMGLAETPGCATLLPAS [H3T] — higher, 3.73
- DSEILLCLMGLAETPGCATLLPAS [H3E] — lower, 2.27
- DSNILLCLMGLAETPGCATLLPAS [H3N] — higher, 3.2
- DSIILLCLMGLAETPGCATLLPAS [H3I] — higher, 3.85
- DSWILLCLMGLAETPGCATLLPAS [H3W] — higher, 3.17
- DSAILLCLMGLAETPGCATLLPAS [H3A] — higher, 2.76
- DSKILLCLMGLAETPGCATLLPAS [H3K] — lower, 1.81
- DSCILLCLMGLAETPGCATLLPAS [H3C] — lower, 1.61
- DSGILLCLMGLAETPGCATLLPAS [H3G] — higher, 3.24
- DSRILLCLMGLAETPGCATLLPAS [H3R] — higher, 3.45
- DSLILLCLMGLAETPGCATLLPAS [H3L] — higher, 3.05
- DSQILLCLMGLAETPGCATLLPAS [H3Q] — lower, 2.02
- DSPILLCLMGLAETPGCATLLPAS [H3P] — lower, 2.65

Variants of: B2
Experiment: as above
Conditions: c terminus: a fixed tail appended

Point of comparison: YQRVLPLPIFTPAKMGATKESRED [E21S], protein stability index 1.91. Against it:
- YQRVLPLPIFTPAKMGATKEDRED [E21D] — higher, 2
- YQRVLPLPIFTPAKMGATKENRED [E21N] — lower, 1.81
- YQRVLPLPIFTPAKMGATKEPRED [E21P] — higher, 2.54
- YQRVLPLPIFTPAKMGATKEKRED [E21K] — higher, 2.1
- YQRVLPLPIFTPAKMGATKEVRED [E21V] — higher, 2.35
- YQRVLPLPIFTPAKMGATKERRED [E21R] — higher, 1.97
- YQRVLPLPIFTPAKMGATKEQRED [E21Q] — higher, 1.98
- YQRVLPLPIFTPAKMGATKETRED [E21T] — higher, 1.92
- YQRVLPLPIFTPAKMGATKEMRED [E21M] — higher, 1.93
- YQRVLPLPIFTPAKMGATKEWRED [E21W] — higher, 2.41
- YQRVLPLPIFTPAKMGATKEGRED [E21G] — lower, 1.75
- YQRVLPLPIFTPAKMGATKEYRED [E21Y] — higher, 2.14
- YQRVLPLPIFTPAKMGATKEARED [E21A] — the same, 1.91
- YQRVLPLPIFTPAKMGATKEHRED [E21H] — higher, 2.22
- YQRVLPLPIFTPAKMGATKEIRED [E21I] — higher, 2.2
- YQRVLPLPIFTPAKMGATKECRED [E21C] — higher, 2.28
- YQRVLPLPIFTPAKMGATKELRED [E21L] — higher, 2.06
- YQRVLPLPIFTPAKMGATKEFRED [E21F] — higher, 1.95
- YQRVLPLPIFTPAKMGATKEEREN [D24N] — higher, 2.22
- YQRVLPLPIFTPAKMGATKEEREH [D24H] — lower, 1.81
- YQRVLPLPIFTPAKMGATKEEREY [D24Y] — lower, 1.76
- YQRVLPLPIFTPAKMGATKEEREP [D24P] — lower, 1.85
- YQRVLPLPIFTPAKMGATKEEREI [D24I] — higher, 1.99
- YQRVLPLPIFTPAKMGATKEEREL [D24L] — higher, 2.04
- YQRVLPLPIFTPAKMGATKEEREQ [D24Q] — higher, 2.03
- YQRVLPLPIFTPAKMGATKEEREG [D24G] — lower, 1.84
- YQRVLPLPIFTPAKMGATKEERET [D24T] — higher, 3.05
- YQRVLPLPIFTPAKMGATKEEREF [D24F] — lower, 1.75
- YQRVLPLPIFTPAKMGATKEEREC [D24C] — higher, 1.98
